Experimental data: patent CN113321730A

Biological target: T1, hCLDN18.2 (human) (UniProt P56856)
T1 sequence (looked up): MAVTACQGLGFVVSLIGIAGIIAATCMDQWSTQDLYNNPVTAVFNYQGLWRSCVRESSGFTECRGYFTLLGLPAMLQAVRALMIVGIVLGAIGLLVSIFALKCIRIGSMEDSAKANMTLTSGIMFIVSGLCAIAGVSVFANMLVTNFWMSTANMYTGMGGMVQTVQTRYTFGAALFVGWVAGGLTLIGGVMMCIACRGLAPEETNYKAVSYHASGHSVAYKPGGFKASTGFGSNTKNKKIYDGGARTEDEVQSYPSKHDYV
Assay: FACS titration on 18.2-K562 cells (20 to 0.002 μg/mL), Anti-Human IgG FITC, MFI

抗体亲和力: 0.696 µg/mL
B1: 抗体E1(C18-23-3G5-1E1) (antibody, V domains shown)
VH: EVQLQQSGPELVKPGASVKISCQASGYTFTDYYMNWVKQSHVKSLEWIGHINPKNGGTNYNQNFKDKATLTVDKSSSTAYMELRSLTSEDSAVYYCARIYYGNSFVYWGQGTLVTVSA
VL: DIVMTQSPSFLTVTAGEKVTLNCKSSQSLLNSGNQKSYLTWYQQKPGQPPKLLIYWASTRESGVPDRFIGSGSGTDFTLTISSVQAEDLAVYYCQNNYFYPVTFGAGTKLELK
